# T1: mStau2 dsRBD1-2 H36A (Mus musculus, UniProt Q8CJ67 8-181, H36A)
# T1 sequence: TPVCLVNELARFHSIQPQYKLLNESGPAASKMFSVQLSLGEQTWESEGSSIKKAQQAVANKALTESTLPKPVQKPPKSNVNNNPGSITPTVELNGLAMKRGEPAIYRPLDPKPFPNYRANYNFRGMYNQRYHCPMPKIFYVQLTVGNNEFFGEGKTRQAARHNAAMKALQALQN
# T2: mStau2 dsRBD1-2 K59A (Mus musculus, UniProt Q8CJ67 8-181, K59A)
# T2 sequence: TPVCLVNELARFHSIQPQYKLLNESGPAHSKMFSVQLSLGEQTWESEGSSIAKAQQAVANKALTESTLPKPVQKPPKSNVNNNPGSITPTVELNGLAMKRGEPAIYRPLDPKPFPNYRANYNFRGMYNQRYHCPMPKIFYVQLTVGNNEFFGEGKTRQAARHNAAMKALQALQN
# T3: mStau2 dsRBD2 (Mus musculus, UniProt Q8CJ67 95-181)
# T3 sequence: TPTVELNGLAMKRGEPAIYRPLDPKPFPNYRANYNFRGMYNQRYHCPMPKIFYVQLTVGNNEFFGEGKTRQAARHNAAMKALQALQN
# T4: mStau2 dsRBD1-4 (Mus musculus, UniProt Q8CJ67 8-375)
# T4 sequence: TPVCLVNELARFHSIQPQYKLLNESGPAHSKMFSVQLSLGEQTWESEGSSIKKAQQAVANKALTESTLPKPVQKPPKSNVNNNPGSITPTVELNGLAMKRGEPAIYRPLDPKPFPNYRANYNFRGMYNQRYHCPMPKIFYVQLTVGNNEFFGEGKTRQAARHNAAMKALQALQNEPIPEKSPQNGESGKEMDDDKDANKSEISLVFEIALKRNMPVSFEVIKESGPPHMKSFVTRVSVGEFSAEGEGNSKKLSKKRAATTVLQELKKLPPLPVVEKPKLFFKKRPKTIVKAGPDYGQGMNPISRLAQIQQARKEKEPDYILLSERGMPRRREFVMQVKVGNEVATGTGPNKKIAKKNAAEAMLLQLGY
# T5: mStau2 dsRBD1-2 E99A (Mus musculus, UniProt Q8CJ67 8-181, E99A)
# T5 sequence: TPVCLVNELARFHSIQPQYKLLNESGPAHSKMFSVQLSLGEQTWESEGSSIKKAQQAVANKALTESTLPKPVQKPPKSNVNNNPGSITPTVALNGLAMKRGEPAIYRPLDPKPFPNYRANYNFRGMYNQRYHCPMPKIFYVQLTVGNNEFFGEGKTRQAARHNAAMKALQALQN
# Experiments:
# mStau2 dsRBD1-2 H36A = molecular target: T1, mStau2 dsRBD1-2 H36A; assay: SPR; Hill n 0.9; SPR: HBS-EP (10 mM HEPES pH 7.4, 150 mM NaCl, 3 mM EDTA, 0.005% P20); EMSA: 5 nM RNA, protein buffer (40 mM Bis-Tris pH 7, 150 mM NaCl, 2 mM DTT presumed), 4% glycerol, 30 ug/mL yeast tRNA, RT; NMR: 150 mM NaCl, 20 mM Na phosphate pH 7.0, 5 mM DTT, 298 K; details: protein: recombinant; label: 5' 32P (EMSA); biotin (SPR); imperfect hairpin, 26 bp with two bulges
# mStau2 dsRBD1-2 K59A [1] = molecular target: T2, mStau2 dsRBD1-2 K59A; assay: as above; details: protein: recombinant; label: 5' 32P (EMSA); biotin (SPR); imperfect hairpin, 26 bp with two bulges
# mStau2 dsRBD2 [2] = molecular target: T3, mStau2 dsRBD2; assay: SPR; Hill n 1.1; text says 829 nM; SPR: HBS-EP (10 mM HEPES pH 7.4, 150 mM NaCl, 3 mM EDTA, 0.005% P20); EMSA: 5 nM RNA, protein buffer (40 mM Bis-Tris pH 7, 150 mM NaCl, 2 mM DTT presumed), 4% glycerol, 30 ug/mL yeast tRNA, RT; NMR: 150 mM NaCl, 20 mM Na phosphate pH 7.0, 5 mM DTT, 298 K; details: protein: recombinant; label: 5' 32P (EMSA); biotin (SPR); imperfect hairpin, 26 bp with two bulges
# mStau2 dsRBD1-4 = molecular target: T4, mStau2 dsRBD1-4; assay: SPR; Hill n 1.7; text says 330 nM; SPR: HBS-EP (10 mM HEPES pH 7.4, 150 mM NaCl, 3 mM EDTA, 0.005% P20); EMSA: 5 nM RNA, protein buffer (40 mM Bis-Tris pH 7, 150 mM NaCl, 2 mM DTT presumed), 4% glycerol, 30 ug/mL yeast tRNA, RT; NMR: 150 mM NaCl, 20 mM Na phosphate pH 7.0, 5 mM DTT, 298 K; details: protein: recombinant; tags: HisSUMO removed; label: 5' 32P (EMSA); biotin (SPR); imperfect hairpin, 26 bp with two bulges
# mStau2 dsRBD1-2 K59A [3] = molecular target: T2, mStau2 dsRBD1-2 K59A; assay: SPR; Hill n 1.2; SPR: HBS-EP (10 mM HEPES pH 7.4, 150 mM NaCl, 3 mM EDTA, 0.005% P20); EMSA: 5 nM RNA, protein buffer (40 mM Bis-Tris pH 7, 150 mM NaCl, 2 mM DTT presumed), 4% glycerol, 30 ug/mL yeast tRNA, RT; NMR: 150 mM NaCl, 20 mM Na phosphate pH 7.0, 5 mM DTT, 298 K; details: protein: recombinant; label: 5' 32P (EMSA); biotin (SPR); hairpin, 18 bp stem
# mStau2 dsRBD2 [4] = molecular target: T3, mStau2 dsRBD2; assay: SPR; Hill n 1.3; SPR: HBS-EP (10 mM HEPES pH 7.4, 150 mM NaCl, 3 mM EDTA, 0.005% P20); EMSA: 5 nM RNA, protein buffer (40 mM Bis-Tris pH 7, 150 mM NaCl, 2 mM DTT presumed), 4% glycerol, 30 ug/mL yeast tRNA, RT; NMR: 150 mM NaCl, 20 mM Na phosphate pH 7.0, 5 mM DTT, 298 K; details: protein: recombinant; label: 5' 32P (EMSA); biotin (SPR); hairpin, 18 bp stem
# mStau2 dsRBD1-2 E99A = molecular target: T5, mStau2 dsRBD1-2 E99A; assay: SPR; Hill n 1.5; SPR: HBS-EP (10 mM HEPES pH 7.4, 150 mM NaCl, 3 mM EDTA, 0.005% P20); EMSA: 5 nM RNA, protein buffer (40 mM Bis-Tris pH 7, 150 mM NaCl, 2 mM DTT presumed), 4% glycerol, 30 ug/mL yeast tRNA, RT; NMR: 150 mM NaCl, 20 mM Na phosphate pH 7.0, 5 mM DTT, 298 K; details: protein: recombinant; label: 5' 32P (EMSA); biotin (SPR); hairpin, 18 bp stem
binder,measurement,setting,value
SRS* (SRS3) (structured_RNA) RNA: GGUAUGUGUGAAUGUGCAUGAAUAUAUAUAUAUAUGCAUAUAUAUAUUUGUAUAUGUUCACACAUG,Kd,mStau2 dsRBD1-2 H36A,499 ± 149 nM
same,Kd,mStau2 dsRBD1-2 K59A [1],624 ± 142 nM
same,Kd,mStau2 dsRBD2 [2],828 ± 29 nM
same,Kd,mStau2 dsRBD1-4,287 ± 127 nM
GGUAUAUACAUGCACAUGCAAUUUGUGUAUGUGUAUGUAUAUA (structured_RNA) [SRS2+5],Kd,mStau2 dsRBD1-2 K59A [3],509 ± 136 nM
same,Kd,mStau2 dsRBD2 [4],650 ± 247 nM
same,Kd,mStau2 dsRBD1-2 E99A,635 ± 308 nM

# From paper PMC6477676, “Staufen2-mediated RNA recognition and localization requires combinatorial action of multiple domains”
